Data on 21 variants can be found in the RNAGym collection of RNA variant scans (doi:10.1073/pnas.2313332121).

First the molecules themselves.
B1: TPR t1 (parent)
chain: GACCAAUCUGCCCUCAGAGCUCGAGAACAUCUUCGGAUGCAGAGGAGGCAGGCUUCGGUGGCGCGAUAGCGCCAACGUCCUCAACCUCCAAUGCAUCCCACCACAUGAUGAUGCCUGAAGAGCCUUGGUUUUUUG

The data set covers variants of B1. The experiment in a line: polymerase ribozyme fitness, log enrichment relative to wild type (log ratio); higher = more active; in vitro selection for triplet polymerase activity. A digest of the protocol:
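A heterodimeric triplet polymerase ribozyme had each of its subunits mutagenized by PCR into a library, which was transcribed. One round of in vitro selection, done in triplicate, annealed each library with a biotinylated primer, its partner subunit and triplets, then incubated it frozen at −7 °C before gel excision of extended constructs, streptavidin-bead capture and RT-PCR. Fitness is the logarithm of genotype enrichment relative to wild-type enrichment, based on Illumina sequencing of inputs and outputs and inverse-variance-weighted replicate averages. A base-2 logarithm is used, and genotypes were kept only with ≥10 input reads and ≥1 read per output.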
In the case of GACCCAUCUGCCUUCAGAGCUCGAGAACAUCUUCGGAUGCAGAGGAGGCAGGCUUCGGUGGCGCGAUAGUGCCAACGUCCUCACCCUCCAAUGCAUCCCACCACAUGAUGAUGCCUGAAGAGCCUUGGUUAUUUG [A5C C13U C70U A84C U131A], the “polymerase ribozyme fitness (log ratio)” value is -1.24.
On to GACCCAUCUGCCCUCAGAGCUCGAGAACAUCUUCGGAUGCAGAGGAGGCAGGCUUCGGUGGCGCGAUAGCGCCAACGUCCUCAACCUCCAUUGCAUCCCACCACAUGAUGAUGCCUGAAGAGCCUUGGUUUUUUG [A5C A91U], for which the “polymerase ribozyme fitness (log ratio)” value was -2.68.
Next, GACCCAUCUGCCCUCAGAGCUCGAGAACAUCUUCGGAUGCAGAGGAGGCAGGCUUCGGUGGCGCGAUAGCGCCAACGUCCUCGACCUCCAAUGCAUCCCACCACAAGAUGAUGCCUGAAGAGUCUUGGUUUUUUA [A5C A83G U106A C123U G135A]: -1.09.
In the case of GACCCAUCUGCCCUAAGAGCUCGAGAACAUCUUCGGAUGCAGAGGAGGCAGGCUUCGGUGGGGCGAUAGCGCCAACGUCCUCAACCUCCAAUGCAUCCCUCCACAUGAUGAUGCCUUAAGAGCCUUGGUUUUUUG [A5C C15A C62G A100U G117U], the “polymerase ribozyme fitness (log ratio)” value is -4.14.
The figure for GACCCAUCUGCCAUCAGAGCUCGAGAACAUCUUCGGAUGCAGAGGAGGCAGGCUUCGGUGGCGCGAUAGUGCCAACGUCCUCAACCACCAAUGCAUCCCACCACAUGAUGAUGCCUGAAGAGCCUUGGUUUUUUG [A5C C13A C70U U87A] is -3.43; for GACCCAUCUGCCCUCAGAGCUAGAGAACAUCUUCGGAUGCAGAGGAGGCAGGCUUCGGUGGCGCGAUAUCGCCAACGUCUUCAACCUCCAAUGCAUCCCACCACAUGAUGAUGACUGAAGAGCCUUGGUUUUUUG [A5C C22A G69U C80U C114A] it is -1.41; for GACCCAUCUGCCUUCAGAGCUCGAGAACAUCUUCGGAUGCAGAGGCGGCAGGCUUCGGUGGCGUGAUAGCGCCAACGAGCUCAACCUCCAAUGCAUCCCACCACAUGAUGAUCCCUGAAGAGCCUUGGUUUUUUG [A5C C13U A46C C64U U78A C79G G113C] it is -5.7.
The figure for GACCCAUCUGCCCUCAGAGCUCGAGAACAUCUUCGGAUGCAGAGGAGGCCGGCUUCGGUGGCGCGAUAGCGCCUACGUCCUCAACCUCCAAUGCAGCCCACCACAUGAUGAUGCCUGAAGAGCCUUGGUUUUUUG [A5C A50C A74U U96G] is -3.17; for GACCCAUAUGCUCUCAGAGCUCGAGAACAUCUUCGGAUGCAGAGGAGGCAGGCAUUGGUGGCUCGAUAGCGCCAACGUCCUCAACCUCCAAUGCAUCGCACCACAUGAUGAUGCCUGAAGAGCCUUGGUUUUUUG [A5C C8A C12U U54A C56U G63U C98G] it is -7.29; for GACCCAUCUGCACUCAGAGCUCGAGAACAUCUUCGGAUGCAGGGGAGGCAGGCUUCGGUCGCGCGAUAGCGCCAACGUCCUCAACCUCCAAUGCAUCCCACCACAUGAUGAUGCCUGAAGAGCCUUGGUUUUUUG [A5C C12A A43G G60C] it is -4.18.
The figure for GACCCAUCUGCUCUCAGAGCUCGAGAACAUCUUCGGAUGCAGAGGAGGCAGGCUUCGGUGGCGCGAUAGCGCAAACGUCCUCAACCUCCAAUGCAUCCUACCACAUGAUGAUGCCUGAAGAGCCUUGGUUUUUUG [A5C C12U C73A C99U] is -4.28.
Regarding GACCCAUCUGCCCUCAGAGCUCGAGAACAUCUUCGGAUGCAGAGGAGGCAGGCUUCGGUGGCGCGAUAGCGCCAACGUCCUCAACCUCCUAUGCAUCCCACCACAUGAUGAUGCCUGAAGAGCCUUGGUUUUUUG [A5C A90U], the “polymerase ribozyme fitness (log ratio)” value was -2.01.
Next, GACCCAUCUGCCUUCAGAGCUCGAGAACAUCUUCGGAUGCAGAGGAGGCAGGCUUCGGUGGCGCGAUAGCGCCAACGUACUCAACCUCCAAUGCAUCCCACCACAUGAUGAUGACUGAAGAGCCUUGGUUUUUUG [A5C C13U C79A C114A]: -2.82; GACCCAUCUGCCCUAAGAGCUCGAGAACAUCUUCGGAUGCAGAGGAGGCAGGCUUCGGUGGCGCGAUAGCGCCAACGUCCUCAACCUCCAAUGCAUCCCACCACAUGAUGAUGCCUGAAGAGCCUUGGUUUUUUG [A5C C15A]: -1.17.
Next, GACCCAUCUGCCCUCAGAGCUCGAGAACAUCUUCGGAUGCAGAGGAGGCUGGCUUCGGUGGCGCGAUAACGCCAACGUCCACAACCUCCAAUGCAUCCCACCACAUGAUGAUGCCUGAAGCGCCUUGGUUUUUUG [A5C A50U G69A U81A A121C]: -1.62; GACCCAUCUGGCCUCAGAGCUCGAGAACAUCUUCGGAUGCAGAGGAGGCAGGCUUCGGUGGCGCGAUAGCGCCAACGUCCUCAAGCUCCAAUGCAUCCCACCACAUGAUGAUGCCUGAAGAGCCUUGGUUUUUUG [A5C C11G C85G]: -1.61; GACCCAUCUGCACUCAGAGCUCGAGAACAUCUUCGGAUGCAGAGGAGGCAGGCUUCGGUGGCGCGAUAGCGUCAACGUCCUCAACCUCCAAUGCAUCCCACCACAUGAUGAUCCCUGAAGAGCCUUGGUUUUUUG [A5C C12A C72U G113C]: -3.72.
With GACCCAUCUGCCCUCAGAGCUCGAGAACAUCUUCGGAUGCAGAGGAGGCAGGCUUCGGUGGCGCGAUAGCGCCAGCGUCCUCAACCUCCAAUGCAUCCCACCACAUGAUGAUGCCUGAAGAGCCUUGGUGUUAUG [A5C A75G U130G U133A], the “polymerase ribozyme fitness (log ratio)” value is -0.35.
On to GACCCAUCUGCCCUCAGAGCUCGAGAACAUCUUCGGAUGCAGAGGUGGCAGGCUUCGGUGGCGCGAUAGCGCCAACGUCCUCAACCUCCAAUGCAUCCCACCACACGAUGAUGCCUGAAGAGCCUUGGUUUUUUG [A5C A46U U106C], for which the “polymerase ribozyme fitness (log ratio)” value was -1.72.
The figure for GACCCAUGUGCUCUCAGAGCUCGAGAACAUCUUCGGAUGCAGAGGAGGCAGGCUUCGGUGGCGCGAUAGCGUCAACGUCCUCAACCUCCAAUGAAUCCCACCACAUGAUGAUGCCUGAAGAGCCUUGGUUUUUUG [A5C C8G C12U C72U C94A] is -1.48; for GACCCAUUUGCCCUCAGAGCUCGAGAACAUCUUCGGAUGCAGAGGAGGCAGGCUUCGGUGGUGCGAUAGCGCCAACGUCCUCAACCUCCAAUGCAUCCCACCACAUGAUGAUGCCUGAAGAGCCUUGGUUUUUUG [A5C C8U C62U] it is -0.266.
